{"source": "paper PMC8659191", "about": "“Expressed Soybean Leghemoglobin: Effect on Escherichia coli at Oxidative and Nitrosative Stress” (Molecules, 2021)", "system": "CC(C)(C)OO", "assay": "purified protein", "conditions": "pH 7.4; 25.0 °C"}
{"substance": "Lba (soybean leghemoglobin a, recombinant, ferric metLb) (Glycine max)", "values": [{"measurement": "Km", "result": "5.4 ± 0.05", "unit": "mM"}]}
